Where a chain is given by its changes, count along the chain named.

For assay [1], the target named is T1, CXCR3 (Homo sapiens, UniProt P49682).
T1 sequence (P49682 1-368): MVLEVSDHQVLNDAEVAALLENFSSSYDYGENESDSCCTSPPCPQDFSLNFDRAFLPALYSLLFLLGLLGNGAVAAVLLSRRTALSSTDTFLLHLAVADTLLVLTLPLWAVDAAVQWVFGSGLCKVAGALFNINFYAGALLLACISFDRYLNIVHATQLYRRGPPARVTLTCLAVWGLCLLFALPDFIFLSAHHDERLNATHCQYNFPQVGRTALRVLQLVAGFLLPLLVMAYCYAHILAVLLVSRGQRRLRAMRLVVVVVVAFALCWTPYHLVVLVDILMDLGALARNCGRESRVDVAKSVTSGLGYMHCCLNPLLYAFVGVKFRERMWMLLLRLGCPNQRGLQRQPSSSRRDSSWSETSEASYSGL
Put plainly: Activity at CXCR3 (data not shown).

For assay [2], the target named is T2, CXCR3 I279A (Homo sapiens, UniProt P49682, I279A).
T2 construct: expressed in transfected cells; host or cells: murine pre-B cell line L1.2, transient transfection
T2 sequence (P49682 1-368 I279A): T1 sequence (P49682 1-368) with I279A
Put plainly: Whole-cell 125I-CXCL11 binding assay, L1.2 transfectants. To be noted: I279A versus WT.

Assay [3] has as its target T3, CXCL11 (Homo sapiens, UniProt O14625).
T3 chain: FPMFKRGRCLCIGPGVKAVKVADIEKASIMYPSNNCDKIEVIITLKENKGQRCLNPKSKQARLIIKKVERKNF
The assay can be described thus: homologous competition binding with 125I-CXCL11 on L1.2 transfectants.

As to `CCCCOCCOc1ccc(-c2ccc3c(c2)/C=C(/C(=O)Nc2ccc([S@@+]([O-])Cc4cncn4CCC)cc2)CCCN3CC(C)C)cc1` [TAK-652], in assay [1], the “activity at CXCR3” value was “devoid of activity”.
For the molecule `CCOc1ccc(-n2c(C(C)N(Cc3cccnc3)C(=O)Cc3ccc(OC(F)(F)F)cc3)nc3ncccc3c2=O)cc1` (stereo not drawn) [VUF 10085, N-1R-[3-(4-ethoxy-phenyl)-4-oxo-3,4-dihydro-pyrido[2,3-d]pyrimidin-2-yl]-ethyl-N-pyridin-3-ylmethyl-2-(4-trifluoromethoxy-phenyl)-acetamide], in assay [2], the “decrease in potency, ligand binding” value was “twofold”.

B1: CXCR3 (protein)
chain: T1 sequence (P49682 1-368) with Y205A
Regarding B1, the Kd in assay [3] is 10.4 nM.

B2: CXCR3 (protein)
chain: T1 sequence (P49682 1-368)
The molecule B2 registered a Kd in assay [3] of 7.7 nM.

B3: CXCR3 (protein)
chain: T1 sequence (P49682 1-368) with F131A
The molecule B3 had a Kd in assay [3] of 1.1 nM. This Kd lies about 7-fold lower than the previous one.

B4: CXCR3 (protein)
chain: T1 sequence (P49682 1-368) with Y60A
The molecule B4 returned a Kd in assay [3] of 1.8 nM.

B5: CXCR3 (protein)
chain: T1 sequence (P49682 1-368) with H202A
As to B5, the Kd in assay [3] came out at 2.9 nM. Compared with the last molecule, the Kd is about 1.6-fold higher.

B6: CXCR3 (protein)
chain: T1 sequence (P49682 1-368) with V275A
In assay [3], B6 had a Kd of 7.4 nM.

The Kd is the constant that tells how readily two partners part at equilibrium. A higher Kd goes with lower affinity.

Values taken from article PMC4376459, “CXCR3 antagonist VUF10085 binds to an intrahelical site distinct from that of the broad spectrum antagonist TAK-779” (British Journal of Pharmacology, 2015).
